Data published in the supplement of paper PMC9112550, “Optimization of the antimicrobial peptide Bac7 by deep mutational scanning” (BMC Biology, 2022).

Each sequence was assayed on Escherichia coli TOP10 (assay: shrunken log2 fold change of peptide-encoding DNA abundance (4.5 h post-induction vs induction); higher = less antimicrobial activity (less host growth inhibition)). Conditions: time post-induction: 4.5 h; library: site-saturation at positions 5, 18, 19, 20.
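Note: peptides expressed intracellularly from a pBAD plasmid library in pooled LB shake-flask culture, induced with 0.3% L-arabinose, DNA abundance read by NGS, three biological replicates, DESeq2 with apeglm shrinkage.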

| Sequence | shrunken log2 fold change |
| --- | --- |
| RRIRFRPPRLPRPRPRPWMQPRP | -0.139 |
| RRIRHRPPRLPRPRPRPLATPRP | -0.0931 |
| RRIRKRPPRLPRPRPRPIKKPRP | -0.077 |
| RRIRPRPPRLPRPRPRPDFRPRP | -0.184 |
| RRIRRRPPRLPRPRPRPWKYPRP | -0.478 |
| RRIRFRPPRLPRPRPRPHDEPRP | 0.099 |
| RRIRPRPPRLPRPRPRPASKPRP | 0.022 |
| RRIRERPPRLPRPRPRPIKSPRP | -0.611 |
| RRIRMRPPRLPRPRPRPFDTPRP | -0.0634 |
| RRIRVRPPRLPRPRPRPEVHPRP | -0.0892 |
| RRIRWRPPRLPRPRPRPHEAPRP | 0.273 |
| RRIRARPPRLPRPRPRPCYNPRP | -0.456 |
| RRIRGRPPRLPRPRPRPAMGPRP | 0.541 |
| RRIRKRPPRLPRPRPRPHMLPRP | -0.105 |
| RRIRMRPPRLPRPRPRPHTQPRP | 0.614 |
| RRIRNRPPRLPRPRPRPCWLPRP | -0.7 |
| RRIRSRPPRLPRPRPRPVNWPRP | 0.142 |
| RRIRQRPPRLPRPRPRPAYAPRP | -0.189 |
| RRIRDRPPRLPRPRPRPYQFPRP | -0.0464 |
| RRIRNRPPRLPRPRPRPWHVPRP | 0.0188 |
| RRIRHRPPRLPRPRPRPAALPRP | -0.0796 |
| RRIRDRPPRLPRPRPRPYCYPRP | -0.125 |
| RRIRVRPPRLPRPRPRPRNVPRP | -0.192 |
| RRIRFRPPRLPRPRPRPKCQPRP | 0.274 |
| RRIRQRPPRLPRPRPRPDYVPRP | 0.07 |

| Sequence | shrunken log2 fold change |
| --- | --- |
| RRIRVRPPRLPRPRPRPQIVPRP | -0.136 |
| RRIRQRPPRLPRPRPRPNGTPRP | 1.1 |
| RRIRARPPRLPRPRPRPVMWPRP | 0.555 |
| RRIRIRPPRLPRPRPRPNMHPRP | -0.805 |
| RRIRRRPPRLPRPRPRPECFPRP | 0.3 |
| RRIRERPPRLPRPRPRPHSIPRP | -0.0535 |
| RRIRVRPPRLPRPRPRPFFKPRP | 0.0447 |
| RRIRNRPPRLPRPRPRPNKFPRP | -0.597 |
| RRIRPRPPRLPRPRPRPEGVPRP | 0.103 |
| RRIRVRPPRLPRPRPRPEWCPRP | 0.323 |
| RRIRHRPPRLPRPRPRPYCYPRP | -0.577 |
| RRIRDRPPRLPRPRPRPKHVPRP | 0.139 |
| RRIRTRPPRLPRPRPRPKPVPRP | 0.217 |
| RRIRIRPPRLPRPRPRPFFGPRP | -0.00653 |
| RRIRFRPPRLPRPRPRPQCTPRP | -0.137 |
| RRIRKRPPRLPRPRPRPESNPRP | 1.13 |
| RRIRWRPPRLPRPRPRPQVIPRP | -0.127 |
| RRIRHRPPRLPRPRPRPTSEPRP | 0.0261 |
| RRIRKRPPRLPRPRPRPGMNPRP | -0.0284 |
| RRIRFRPPRLPRPRPRPWAFPRP | -0.161 |
| RRIRRRPPRLPRPRPRPEHTPRP | -0.0248 |
| RRIRARPPRLPRPRPRPFATPRP | 0.66 |
| RRIRLRPPRLPRPRPRPYNSPRP | -0.514 |
| RRIRRRPPRLPRPRPRPQLDPRP | -0.0387 |
| RRIRERPPRLPRPRPRPISDPRP | 0.00346 |

| Sequence | shrunken log2 fold change |
| --- | --- |
| RRIRIRPPRLPRPRPRPFRPPRP | 0.023 |
| RRIRGRPPRLPRPRPRPDKDPRP | 0.602 |
| RRIRARPPRLPRPRPRPLCDPRP | 2.32 |
| RRIRVRPPRLPRPRPRPYPPPRP | -0.103 |
| RRIRERPPRLPRPRPRPQAKPRP | 0.162 |
| RRIRRRPPRLPRPRPRPYHDPRP | -0.266 |
| RRIRIRPPRLPRPRPRPDAVPRP | 0.0396 |
| RRIRFRPPRLPRPRPRPAAYPRP | -0.341 |
| RRIRARPPRLPRPRPRPNVWPRP | 0.537 |
| RRIRTRPPRLPRPRPRPFISPRP | -0.0743 |
| RRIRERPPRLPRPRPRPTFWPRP | -0.0352 |
| RRIRFRPPRLPRPRPRPEWWPRP | 0.0105 |
| RRIRNRPPRLPRPRPRPIWFPRP | 0.205 |
| RRIRERPPRLPRPRPRPNWGPRP | 0.00892 |
| RRIRQRPPRLPRPRPRPQYVPRP | 0.0318 |
| RRIRCRPPRLPRPRPRPSHRPRP | -0.508 |
| RRIRQRPPRLPRPRPRPQQMPRP | 0.156 |
| RRIRLRPPRLPRPRPRPLDLPRP | -0.481 |
| RRIRARPPRLPRPRPRPYVGPRP | 0.0297 |
| RRIRHRPPRLPRPRPRPFTPPRP | -0.484 |
| RRIRMRPPRLPRPRPRPQTLPRP | 0.0245 |
| RRIRDRPPRLPRPRPRPKKPPRP | -0.0462 |
| RRIRMRPPRLPRPRPRPMWWPRP | -0.00447 |
| RRIRYRPPRLPRPRPRPDQLPRP | -0.122 |
| RRIRTRPPRLPRPRPRPWAVPRP | -0.0894 |

| Sequence | shrunken log2 fold change |
| --- | --- |
| RRIRMRPPRLPRPRPRPGCDPRP | 1.85 |
| RRIRIRPPRLPRPRPRPDHYPRP | -0.38 |
| RRIRQRPPRLPRPRPRPRGVPRP | -0.0152 |
| RRIRLRPPRLPRPRPRPCYKPRP | -0.133 |
| RRIRFRPPRLPRPRPRPMHYPRP | -0.0476 |
| RRIRQRPPRLPRPRPRPYWPPRP | -0.11 |
| RRIRSRPPRLPRPRPRPVQIPRP | 0.111 |
| RRIRTRPPRLPRPRPRPRQFPRP | -0.0836 |
| RRIRWRPPRLPRPRPRPLNNPRP | -0.323 |
| RRIRMRPPRLPRPRPRPGGKPRP | 0.583 |
| RRIRMRPPRLPRPRPRPCRVPRP | 0.00805 |
| RRIRSRPPRLPRPRPRPWKAPRP | -0.00809 |
| RRIRARPPRLPRPRPRPMCTPRP | -0.0696 |
| RRIRGRPPRLPRPRPRPEGPPRP | -0.0198 |
| RRIRQRPPRLPRPRPRPWTFPRP | -0.0125 |
| RRIRQRPPRLPRPRPRPFSGPRP | -0.0802 |
| RRIRGRPPRLPRPRPRPMWTPRP | 0.311 |
| RRIRARPPRLPRPRPRPLGDPRP | 0.281 |
| RRIRNRPPRLPRPRPRPFAIPRP | -0.0909 |
| RRIRDRPPRLPRPRPRPKCYPRP | 0.013 |
| RRIRWRPPRLPRPRPRPNPGPRP | 0.108 |
| RRIRWRPPRLPRPRPRPHLAPRP | 0.265 |
| RRIRKRPPRLPRPRPRPVGGPRP | 0.544 |
| RRIRHRPPRLPRPRPRPYYIPRP | 0.0121 |
| RRIRERPPRLPRPRPRPWSSPRP | 9.28e-05 |

| Sequence | shrunken log2 fold change |
| --- | --- |
| RRIRLRPPRLPRPRPRPLKGPRP | -0.0279 |
| RRIRARPPRLPRPRPRPQCIPRP | -0.125 |
| RRIRGRPPRLPRPRPRPNRSPRP | -0.0578 |
| RRIRGRPPRLPRPRPRPMITPRP | 0.24 |
| RRIRYRPPRLPRPRPRPLRRPRP | 0.17 |
| RRIRPRPPRLPRPRPRPMIPPRP | -0.124 |
| RRIRERPPRLPRPRPRPNWPPRP | 0.202 |
| RRIRMRPPRLPRPRPRPDGAPRP | 2.17 |
| RRIRVRPPRLPRPRPRPIESPRP | -0.0725 |
| RRIRTRPPRLPRPRPRPKYCPRP | -0.0743 |
| RRIRIRPPRLPRPRPRPIFMPRP | -0.376 |
| RRIRKRPPRLPRPRPRPQCTPRP | -0.0504 |
| RRIRRRPPRLPRPRPRPKTHPRP | 0.126 |
| RRIRSRPPRLPRPRPRPNGVPRP | -0.00885 |
| RRIRIRPPRLPRPRPRPVKWPRP | -0.0064 |
| RRIRQRPPRLPRPRPRPLLYPRP | -0.382 |
| RRIRNRPPRLPRPRPRPSPDPRP | 0.0143 |
| RRIRHRPPRLPRPRPRPVCGPRP | 0.137 |
| RRIRRRPPRLPRPRPRPYVLPRP | 0.00941 |
| RRIRYRPPRLPRPRPRPRNWPRP | -0.0364 |
| RRIRNRPPRLPRPRPRPYWIPRP | -1.71 |
| RRIRYRPPRLPRPRPRPCCSPRP | -0.141 |
| RRIRGRPPRLPRPRPRPMHHPRP | 0.533 |
| RRIRLRPPRLPRPRPRPTIWPRP | 0.203 |
| RRIRHRPPRLPRPRPRPGMCPRP | -0.493 |

| Sequence | shrunken log2 fold change |
| --- | --- |
| RRIRWRPPRLPRPRPRPWWAPRP | -0.194 |
| RRIRWRPPRLPRPRPRPNIRPRP | -0.135 |
| RRIRRRPPRLPRPRPRPWKNPRP | 0.206 |
| RRIRKRPPRLPRPRPRPPEWPRP | 1.19 |
| RRIRLRPPRLPRPRPRPAGQPRP | -0.0451 |
| RRIRLRPPRLPRPRPRPWLHPRP | -0.0284 |
| RRIRHRPPRLPRPRPRPFSNPRP | -1.09 |
| RRIRKRPPRLPRPRPRPHENPRP | -0.00978 |
| RRIRRRPPRLPRPRPRPPLFPRP | 0.464 |
| RRIRARPPRLPRPRPRPAAMPRP | 0.856 |
| RRIRFRPPRLPRPRPRPDFHPRP | -0.287 |
| RRIRLRPPRLPRPRPRPCLSPRP | 0.00058 |
| RRIRCRPPRLPRPRPRPMGNPRP | -0.729 |
| RRIRERPPRLPRPRPRPLKGPRP | 0.176 |
| RRIRKRPPRLPRPRPRPLGNPRP | 0.094 |
| RRIRARPPRLPRPRPRPWHVPRP | -0.0219 |
| RRIRNRPPRLPRPRPRPDHNPRP | -0.245 |
| RRIRARPPRLPRPRPRPVIWPRP | 0.322 |
| RRIRMRPPRLPRPRPRPMNLPRP | 0.11 |
| RRIRWRPPRLPRPRPRPEFQPRP | 0.118 |
| RRIRNRPPRLPRPRPRPGASPRP | 0.412 |
| RRIRARPPRLPRPRPRPQRGPRP | 0.468 |
| RRIRARPPRLPRPRPRPFIFPRP | 0.419 |
| RRIRERPPRLPRPRPRPKWGPRP | -0.0917 |
| RRIRNRPPRLPRPRPRPWLGPRP | 0.0222 |
